Test [1] concerns the target T1, DNA-PKcs (Homo sapiens, UniProt P78527). Kind of test: Peptide interaction assay with purified DNA-PKcs. The settings on record: 50 mM and 100 mM KCl; streptavidin paramagnetic beads; silver-staining. The test is classed as binding. Also noted: The starting material for purification of DNA-PKcs was HeLa NE; host or cells: HeLa nuclear extract; purified in house over Q Sepharose, heparin agarose, phenyl Sepharose and Mono-S. The protocol: 5 Peptides with the sequence Ser-Gly-Ser-Gly (SEQ ID NO:10) as a linker to 12 amino acid residues (SEQ ID NOS:1 and 12-15) derived from the sequence of Ku80 (see FIG. 5) were generated with a biotin moiety at the N-terminus (Khiron Technologies). Each peptide (2×10^11 moles) was incubated with either 400 ng (˜10^12 moles) of purified DNA-PKcs or 100 μg of crude HeLa NE in 100 μl (final) volume of Z′ buffer (see above for buffer composition). Binding reactions were incubated for 2.75 hours at 4° C., then a 100 μl suspension of para-magnetic beads, containing 1:5 dilution of Dynabeads (Dynal) in Z′ buffer, was added for a final 0.25 hour incubation. Dynabeads are conjugated with Streptavidin. The bead-protein complexes were be retrieved from the solution using a magnet and washed 5 times with 0.5 ml of Buffer X (see above for buffer composition). […]
The inventors synthesised a series of peptides (Peptides A-E, SEQ ID NOS:1 and 12-15) derived in sequence from the extreme C-terminus of Ku80 (residues 609 to 733, SEQ ID NO:11: see FIG. 5 and Materials and Methods). […] The beads were recovered using a magnet, washed extensively in buffer containing the same concentration of KCl as the incubation buffer X (25 mM HEPES pH 7.5, 50 mM/100 mM KCl, 2 mM MgCl2, 0.4% NP-40), and the bound protein eluted in SDS-PAGE sample buffer, resolved on a 6% polyacrylamide gel and detected using silver-staining.

Test [2] deals with T1, DNA-PKcs. Kind of test: Peptide interaction assay with crude HeLa cell nuclear extract. The class given is binding. Also noted: incubated with ˜100 μg (10 μl) of HeLa Cell nuclear extract (NE); host or cells: HeLa cell nuclear extract. The protocol:
(§1) 5 Peptides with the sequence Ser-Gly-Ser-Gly (SEQ ID NO:10) as a linker to 12 amino acid residues (SEQ ID NOS:1 and 12-15) derived from the sequence of Ku80 (see FIG. 5) were generated with a biotin moiety at the N-terminus (Khiron Technologies). Each peptide (2×10^11 moles) was incubated with either 400 ng (˜10^12 moles) of purified DNA-PKcs or 100 μg of crude HeLa NE in 100 μl (final) volume of Z′ buffer (see above for buffer composition). Binding reactions were incubated for 2.75 hours at 4° C., then a 100 μl suspension of para-magnetic beads, containing 1:5 dilution of Dynabeads (Dynal) in Z′ buffer, was added for a final 0.25 hour incubation. Dynabeads are conjugated with Streptavidin. The bead-protein complexes were be retrieved from the solution using a magnet and washed 5 times with 0.5 ml of Buffer X (see above for buffer composition). Proteins retained on the beads were eluted in SDS gel-loading buffer and subjected to polyacrylamide gel eletrophoresis and silver staining.
The ability of each of the five peptides to retrieve proteins from a crude unfractionated HeLa cell nuclear extract was determined. […] Any proteins remaing bound to the peptide/beads was eluted in SDS-PAGE buffer, resolved on a 6% polyacrylamide gel and detected with silver-staining. […]

Test [3] addresses T2, DNA-dependent protein kinase catalytic subunit (DNA-PKcs), human, from HeLa cell nuclear extract (human, UniProt P78527 1-4128).
T2 construct: mature; Used either within crude HeLa nuclear extract or as an essentially homogeneous preparation (about 1 Ku per 840 DNA-PKcs molecules); also called purified DNA-PKcs; homogeneous DNA-PKcs
Nature of the test: biotinylated peptide with purified DNA-PKcs, streptavidin magnetic beads, 50 mM or 100 mM KCl, silver stain. The protocol: as §1, with “12–15)” for “12-15)”, “(2 ×10^11” for “(2×10^11”, “(~10^12” for “(˜10^12”, “Z'” for “Z′”

Consider five molecules from patent US6753151B1, “Interactions of Ku polypeptides and applications thereof” (Kudos Pharmaceuticals Limited, priority 1999, dated 2004).

Where no end group is shown, it is not given here. The star is where a group is joined. Biotin = O=C1N[C@H]2[C@H](CS[C@H]2CCCCC(=O)*)N1

T1 sequence (P78527 whole entry): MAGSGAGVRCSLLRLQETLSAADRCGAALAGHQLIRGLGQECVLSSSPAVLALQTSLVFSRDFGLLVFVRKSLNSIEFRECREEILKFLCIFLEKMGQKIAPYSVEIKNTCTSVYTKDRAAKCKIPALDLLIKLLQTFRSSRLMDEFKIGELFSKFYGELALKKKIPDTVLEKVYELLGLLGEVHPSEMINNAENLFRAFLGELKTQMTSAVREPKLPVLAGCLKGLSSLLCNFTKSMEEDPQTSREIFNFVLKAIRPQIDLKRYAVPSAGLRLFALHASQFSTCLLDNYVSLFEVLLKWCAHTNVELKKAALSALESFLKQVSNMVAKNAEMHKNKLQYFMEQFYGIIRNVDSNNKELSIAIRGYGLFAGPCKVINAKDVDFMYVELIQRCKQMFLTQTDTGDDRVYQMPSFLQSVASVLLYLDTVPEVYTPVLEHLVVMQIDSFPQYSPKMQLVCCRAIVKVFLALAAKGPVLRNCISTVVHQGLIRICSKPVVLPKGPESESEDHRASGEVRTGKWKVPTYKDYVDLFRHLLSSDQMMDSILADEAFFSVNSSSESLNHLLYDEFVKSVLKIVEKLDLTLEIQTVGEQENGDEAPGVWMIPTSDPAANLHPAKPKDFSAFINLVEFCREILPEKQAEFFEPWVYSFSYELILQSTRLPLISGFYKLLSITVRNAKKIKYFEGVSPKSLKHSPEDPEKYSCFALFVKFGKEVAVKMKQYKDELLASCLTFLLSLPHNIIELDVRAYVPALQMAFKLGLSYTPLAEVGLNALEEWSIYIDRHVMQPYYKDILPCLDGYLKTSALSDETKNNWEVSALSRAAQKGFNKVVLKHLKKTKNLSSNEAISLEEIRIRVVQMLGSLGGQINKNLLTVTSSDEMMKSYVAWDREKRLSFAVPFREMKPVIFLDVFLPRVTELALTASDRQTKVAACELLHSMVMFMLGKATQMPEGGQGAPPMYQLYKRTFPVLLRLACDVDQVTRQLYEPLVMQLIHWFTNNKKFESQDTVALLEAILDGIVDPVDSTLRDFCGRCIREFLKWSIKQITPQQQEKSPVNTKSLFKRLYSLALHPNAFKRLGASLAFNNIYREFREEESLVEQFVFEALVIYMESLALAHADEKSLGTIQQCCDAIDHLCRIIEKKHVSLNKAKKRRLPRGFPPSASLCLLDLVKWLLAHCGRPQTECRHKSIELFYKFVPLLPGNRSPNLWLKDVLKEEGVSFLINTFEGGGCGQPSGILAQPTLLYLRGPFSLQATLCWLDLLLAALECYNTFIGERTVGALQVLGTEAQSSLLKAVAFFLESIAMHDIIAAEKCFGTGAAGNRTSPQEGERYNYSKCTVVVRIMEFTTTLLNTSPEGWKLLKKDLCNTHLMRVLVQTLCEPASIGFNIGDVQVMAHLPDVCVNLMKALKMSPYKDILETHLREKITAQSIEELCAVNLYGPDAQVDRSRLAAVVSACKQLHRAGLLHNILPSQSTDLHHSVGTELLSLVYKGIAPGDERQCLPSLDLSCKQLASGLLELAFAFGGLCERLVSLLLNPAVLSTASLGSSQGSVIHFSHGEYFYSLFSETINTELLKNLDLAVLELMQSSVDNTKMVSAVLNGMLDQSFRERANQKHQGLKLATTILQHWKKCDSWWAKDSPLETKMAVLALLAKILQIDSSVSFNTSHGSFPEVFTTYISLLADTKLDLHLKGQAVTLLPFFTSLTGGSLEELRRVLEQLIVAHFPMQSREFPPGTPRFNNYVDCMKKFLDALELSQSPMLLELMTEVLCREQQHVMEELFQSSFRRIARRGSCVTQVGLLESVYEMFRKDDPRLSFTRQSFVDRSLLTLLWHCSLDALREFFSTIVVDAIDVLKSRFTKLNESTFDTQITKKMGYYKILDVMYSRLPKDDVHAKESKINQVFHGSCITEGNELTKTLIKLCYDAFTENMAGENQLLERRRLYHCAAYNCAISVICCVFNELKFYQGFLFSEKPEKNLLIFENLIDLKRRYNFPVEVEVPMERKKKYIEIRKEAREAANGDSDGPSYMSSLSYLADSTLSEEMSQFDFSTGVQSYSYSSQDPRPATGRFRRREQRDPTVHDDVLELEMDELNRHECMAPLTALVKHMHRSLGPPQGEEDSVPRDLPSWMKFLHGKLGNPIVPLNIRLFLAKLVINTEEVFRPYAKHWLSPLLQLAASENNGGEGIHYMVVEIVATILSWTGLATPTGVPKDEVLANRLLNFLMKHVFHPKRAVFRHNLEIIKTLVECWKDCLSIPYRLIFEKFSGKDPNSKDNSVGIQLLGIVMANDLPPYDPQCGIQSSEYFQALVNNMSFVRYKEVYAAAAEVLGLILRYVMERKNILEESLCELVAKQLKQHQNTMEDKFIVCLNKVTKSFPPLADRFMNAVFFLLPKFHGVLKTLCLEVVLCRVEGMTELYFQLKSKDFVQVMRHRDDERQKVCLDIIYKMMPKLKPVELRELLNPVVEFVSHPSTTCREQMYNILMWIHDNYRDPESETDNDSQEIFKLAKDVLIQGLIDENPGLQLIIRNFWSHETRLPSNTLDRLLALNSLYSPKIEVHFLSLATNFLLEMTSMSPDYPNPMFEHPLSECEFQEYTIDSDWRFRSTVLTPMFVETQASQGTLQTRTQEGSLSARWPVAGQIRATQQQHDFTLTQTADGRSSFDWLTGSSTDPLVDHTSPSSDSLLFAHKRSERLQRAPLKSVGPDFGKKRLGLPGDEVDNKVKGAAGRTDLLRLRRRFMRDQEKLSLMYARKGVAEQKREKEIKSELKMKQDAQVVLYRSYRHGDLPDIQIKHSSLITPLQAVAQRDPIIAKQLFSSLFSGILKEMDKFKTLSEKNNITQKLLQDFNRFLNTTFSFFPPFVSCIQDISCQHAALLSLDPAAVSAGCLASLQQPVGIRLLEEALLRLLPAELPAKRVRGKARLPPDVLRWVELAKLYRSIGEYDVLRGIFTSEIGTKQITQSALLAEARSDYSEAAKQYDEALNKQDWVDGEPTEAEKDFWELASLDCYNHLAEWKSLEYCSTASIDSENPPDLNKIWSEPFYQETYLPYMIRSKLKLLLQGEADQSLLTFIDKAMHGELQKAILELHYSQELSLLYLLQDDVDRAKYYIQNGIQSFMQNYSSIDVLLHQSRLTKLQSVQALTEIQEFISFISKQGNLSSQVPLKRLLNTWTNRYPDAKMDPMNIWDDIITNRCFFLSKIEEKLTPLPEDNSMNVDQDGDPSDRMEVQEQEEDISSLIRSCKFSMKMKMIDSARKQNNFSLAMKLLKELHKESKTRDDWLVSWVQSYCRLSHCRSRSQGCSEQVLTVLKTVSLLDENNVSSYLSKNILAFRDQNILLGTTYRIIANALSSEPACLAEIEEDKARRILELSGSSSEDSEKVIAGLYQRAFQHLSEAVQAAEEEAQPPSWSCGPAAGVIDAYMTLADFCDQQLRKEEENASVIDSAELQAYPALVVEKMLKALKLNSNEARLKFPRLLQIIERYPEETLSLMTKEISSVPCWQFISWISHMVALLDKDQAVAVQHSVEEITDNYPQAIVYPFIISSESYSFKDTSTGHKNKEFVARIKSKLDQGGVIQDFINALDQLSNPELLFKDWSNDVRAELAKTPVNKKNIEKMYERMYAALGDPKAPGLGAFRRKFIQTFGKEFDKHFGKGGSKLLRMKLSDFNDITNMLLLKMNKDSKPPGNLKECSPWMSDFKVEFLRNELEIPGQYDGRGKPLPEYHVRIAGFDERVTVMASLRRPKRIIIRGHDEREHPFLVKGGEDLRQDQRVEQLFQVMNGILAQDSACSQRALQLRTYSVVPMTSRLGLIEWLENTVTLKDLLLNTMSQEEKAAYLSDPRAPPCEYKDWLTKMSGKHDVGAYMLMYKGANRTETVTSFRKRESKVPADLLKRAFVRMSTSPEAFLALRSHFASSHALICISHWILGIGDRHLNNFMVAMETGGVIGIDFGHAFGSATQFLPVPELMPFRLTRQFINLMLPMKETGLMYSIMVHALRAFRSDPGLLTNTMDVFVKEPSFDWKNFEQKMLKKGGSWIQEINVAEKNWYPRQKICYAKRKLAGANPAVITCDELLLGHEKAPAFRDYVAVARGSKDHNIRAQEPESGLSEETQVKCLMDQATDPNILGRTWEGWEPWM
T2 sequence (P78527 whole entry): as above

Turning to EGGDVDDLLDMI [Peptide E], the “binding of purified DNA-PKcs by biotinylated peptide” value with DNA-PKcs [1] was “interacts directly with DNA-PKcs”. The “proteins retrieved from HeLa nuclear extract by biotinylated peptide” value with DNA-PKcs [2] (50 mM KCl, streptavidin magnetic beads, silver-staining, western blotting) is given as “affinity purified predominantly a single protein species of high molecular weight”. The “depletion of DNA-PKcs from HeLa nuclear extract” value with DNA-PKcs [2] (additional studies) is listed as 60-70%.
Turning to Biotin-SGSGEEAKKFLAPKDK [Peptide A (biotin-Ser-Gly-Ser-Gly linked to 12 residues of the Ku80 C-terminus)], in test [3], the binding result is on record as “no binding”.
On to Biotin-SGSGAVFEEGGDVDDL [Peptide D (biotin-Ser-Gly-Ser-Gly linked to 12 residues of the Ku80 C-terminus)], for which the binding result in test [3] was “no binding”.
On the same count and under the same terms, the entry for Biotin-SGSGPSGDTAAVFEEG [Peptide C (biotin-Ser-Gly-Ser-Gly linked to 12 residues of the Ku80 C-terminus)] is “no binding”.
Still for that read-out and setting: the result for Biotin-SGSGLAPKDKPSGDTA [Peptide B (biotin-Ser-Gly-Ser-Gly linked to 12 residues of the Ku80 C-terminus)] reads “no binding”.
